Laboratory results: US20170183639

System: YFP-CD2 (CD2 expressed in LLC-PK1 cells as a yellow fluorescent protein fused protein)

Src kinase of LLC-PK1 cells
basal Src activity measured as Y418 phosphorylation: CD2 expression does increase basal Src activity in this manner as compared with a control cell line
